Test results: patent US20240317858A1 (Adimab, published 2024)
Where a chain is given by its changes, count along the chain named.

B1: Antibody No. A003 (ADI-26913) Fab (Fab, V domains shown)
VH: QVQLVQSGAEVKKPGASVKVSCKASGFNIKDYYMHWVRQAPGQRLEWMGWIDLENANTIYDAKFQGRVTITRDTSASTAYMELSSLRSEDTAVYYCARDQYGRYFYDVWGQGTLVTVSS
VL: DIVMTQSPDSLAVSLGERATINCKSSQSLLNARTGKNYLAWYQQKPGQPPKLLIYWASTRESGVPDRFSGSGSGTDFTLTISSLQAEDVAVYYCKQSYSRRTFGGGTKVEIK
notes: Fab by papain digestion of the IgG1
B2: Antibody No. A004 (ADI-26920) Fab (Fab, V domains shown)
VH: B1 VH with A97G, Q100A
VL: B1 VL with R100L
notes: as for B1
B3: Antibody No. A005 (ADI-26921) Fab (Fab, V domains shown)
VH: B1 VH with N55E, A56G, Q100A
VL: B1 VL with R100L
notes: as for B1
B4: Antibody No. V014 (ADI-76357) Fab (Fab, V domains shown)
VH: B1 VH with N28D
VL: B1 VL
notes: as for B1
B5: Antibody No. V017 (ADI-76360) Fab (Fab, V domains shown)
VH: B1 VH with N57D, A97G, Q100A
VL: B1 VL with R100L
notes: as for B1
B6: Antibody No. V019 (ADI-76362) Fab (Fab, V domains shown)
VH: B1 VH with N55E, A56G, N57D, Q100A
VL: B1 VL with R100L
notes: as for B1
B7: Antibody No. A003 (ADI-26913) IgG1 (antibody, V domains shown)
VH: B1 VH
VL: B1 VL
notes: IgG1, CHO-produced
B8: Antibody No. A004 (ADI-26920) IgG1 (antibody, V domains shown)
VH: B1 VH with A97G, Q100A
VL: B1 VL with R100L
notes: IgG1, CHO-produced
B9: Antibody No. A005 (ADI-26921) IgG1 (antibody, V domains shown)
VH: B1 VH with N55E, A56G, Q100A
VL: B1 VL with R100L
notes: IgG1, CHO-produced
B10: Antibody No. V014 (ADI-76357) IgG1 (antibody, V domains shown)
VH: B1 VH with N28D
VL: B1 VL
notes: IgG1, CHO-produced
B11: Antibody No. V015 (ADI-76358) IgG1 (antibody, V domains shown)
VH: B1 VH with N57D
VL: B1 VL
notes: IgG1, CHO-produced
B12: Antibody No. V016 (ADI-76359) IgG1 (antibody, V domains shown)
VH: B1 VH with N28D, A97G, Q100A
VL: B1 VL with R100L
notes: IgG1, CHO-produced
B13: Antibody No. V017 (ADI-76360) IgG1 (antibody, V domains shown)
VH: B1 VH with N57D, A97G, Q100A
VL: B1 VL with R100L
notes: IgG1, CHO-produced
B14: Antibody No. V018 (ADI-76361) IgG1 (antibody, V domains shown)
VH: B1 VH with N28D, N55E, A56G, Q100A
VL: B1 VL with R100L
notes: IgG1, CHO-produced
B15: Antibody No. V019 (ADI-76362) IgG1 (antibody, V domains shown)
VH: B1 VH with N55E, A56G, N57D, Q100A
VL: B1 VL with R100L
notes: IgG1, CHO-produced

These binders were tested against T1, Cynomolgus CD3εδ Fc heterodimer (Cy CD3ε Fc + CD3δ Fc-HIS) (cynomolgus, UniProt Q95LI5 22-117; Q95LI8 22-100) (assay: SPR (Biacore), Fab over immobilized CD3εδ Fc, pH 7.4).
T1 construct: range 22-117;range 22-100; Made in HEK 293 cells with a heterologous signal peptide; also called Cy CD3εδ-Fc; cyno CD3εδ Fc; not shown: Fc; Fc followed by HIS tag
T1 sequence (Q95LI5 22-117, stated change not applied, form in doubt, chain 1 of 2): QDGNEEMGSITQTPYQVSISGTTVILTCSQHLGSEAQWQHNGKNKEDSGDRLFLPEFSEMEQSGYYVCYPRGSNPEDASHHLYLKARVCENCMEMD
T1 sequence (Q95LI8 22-100, stated change not applied, form in doubt, chain 2 of 2): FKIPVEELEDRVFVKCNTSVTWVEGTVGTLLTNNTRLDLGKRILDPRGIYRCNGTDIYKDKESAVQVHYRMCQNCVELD
Method: (§1) Anti-CD3 antibodies A001-A005, V002, V004, V007, V009, V010, V013, and V014-V019 were produced in CHO cells, and Fab fragments were generated from IgG1 antibodies by papain digestion and purification as described in Example 2. Monovalent binding affinity at pH 7.4 and pH 6.0 was measured via surface plasmon resonance (SPR). Briefly, human or cynomolgus CD3εδ Fe heterodimer produced as described in Example 2 was immobilized to a CM5 sensor chip in a Biacore® X100 (Cytiva, previously GE Healthcare Life Sciences) to a response level of ˜500 RUs. Fabs were then injected at 3-fold increasing concentrations, ranging from 0.74-180 nM. The sensor chip was doubly regenerated between cycles using 0.35 M EDTA and 0.1 M NaOH. The resulting data were double reference subtracted and fit to a 1:1 binding model using Biacore® Evaluation Software.
For B1, the Kd was 9.3 nM. B2 was tested, and the Kd was 9 nM. With B3 the Kd was 33 nM. B4 gave a Kd of 11 nM. Binder B5 has a Kd of 16 nM.

Each binder was assayed against T2, Human CD3εδ Fc heterodimer (Hu CD3ε Fc + CD3δ Fc-HIS) (human, UniProt P07766 22-126; P04234 22-100) in the same assay as above.
T2 construct: range 22-126;range 22-100; Made in HEK 293 cells with a heterologous signal peptide; also called Hu CD3εδ-Fc; CD3εδ Fc-HIS heterodimer; not shown: Fc; Fc followed by HIS tag
T2 sequence (P07766 22-126, stated change not applied, form in doubt, chain 1 of 2): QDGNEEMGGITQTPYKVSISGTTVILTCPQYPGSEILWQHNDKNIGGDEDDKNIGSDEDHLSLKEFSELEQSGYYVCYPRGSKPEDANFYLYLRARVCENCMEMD
T2 sequence (P04234 22-100, stated change not applied, form in doubt, chain 2 of 2): as the sequence (Q95LI8 22-100, stated change not applied, form in doubt, chain 2 of 2) above, with V5I, K15N, V20I, T32S, N33D, N34I, A64T, N74S counted along it
Method: as §1
In the case of B1, the Kd is reported as 9.9 nM. B2 gave a Kd of 10 nM. In the case of B3, the Kd is reported as 24 nM. In the case of B4, the Kd is reported as 11 nM. Work on B5 yielded a Kd of 19 nM.

Each binder was assayed against T3, Rhesus CD3εδ Fc heterodimer (rhesus) (assay: BLI (Octet), Fab monovalent, pH 7.4).
T3 construct: extracellular domain; also called Rh CD3εδ-Fc
Method: (§2) ForteBio KD measurements (Biolayer interferometry; BLI). ForteBio affinity measurements were performed generally as previously described (Estep, P., et al., High throughput solution-based measurement of antibody-antigen affinity and epitope binning. MAbs, 2013. 5(2): p. 270-8.). Briefly, ForteBio affinity measurements were performed by loading IgGs or CD3εδ Fe-HIS heterodimer onto AHC sensors. Sensors were equilibrated off-line in assay buffer for 30 min and then monitored on-line for 60 seconds for baseline establishment. Sensors with loaded IgGs were exposed to 100 nM antigen (e.g., CD3) for 3 min, afterwards they were transferred to assay buffer for 10 min for off-rate measurement. Sensors loaded with CD3εδ Fe-HIS heterodimer were exposed to 100 nM anti-CD3 Fab for 3 min, afterwards they were transferred to assay buffer for 3 min or 10 min for off-rate measurement. Kinetics were analyzed using the 1:1 binding model. For measuring binding at different pHs, measurements were performed at pre-determined pHs (e.g., pH 7.4 and pH 6.0).
(§3) Anti-CD3 antibodies A001-A005, V002, V004, V007, V009, V010, V013, and V014-V019 were produced as IgG1s in CHO cells, and Fab fragments were generated from IgG1 antibodies by papain digestion and purification as described in Example 2. Human, cynomolgus, rhesus, and mouse CD3εδ Fc heterodimers were produced, and monovalent binding affinity and avidity at pH 7.4 and pH 6.0 were measured using the Octet® HTX instrument (ForteBio) as described in Example 2.
B1 was tested, and the Kd was 33 nM. B2 gave a Kd of 51 nM. B3 was tested, and the Kd was 36 nM. With B4 the Kd was 39 nM. With B6 the Kd was 79 nM.

These binders were tested against T1, Cynomolgus CD3εδ Fc heterodimer (Cy …) (assay: BLI (Octet), Fab monovalent, pH 7.4).
Method: as §2, §3
B1 showed a Kd of 28 nM. Work on B2 yielded a Kd of 50 nM. Work on B3 yielded a Kd of 39 nM. B4 was tested, and the Kd was 39 nM. Binder B5 has a Kd of 96 nM. B6 was tested, and the Kd was 34 nM.

Each binder was assayed against T2, Human CD3εδ Fc heterodimer (Hu CD3ε Fc …) (assay: BLI (Octet), Fab monovalent, pH 7.4).
Method: as §2, §3
For B1, the Kd was 35 nM. In the case of B2, the Kd is reported as 42 nM. In the case of B3, the Kd is reported as 78 nM. Binder B4 has a Kd of 44 nM. In the case of B5, the Kd is reported as 420 nM. Work on B6 yielded a Kd of 64 nM.

What follows are binders tested against T1, Cynomolgus CD3εδ Fc heterodimer (Cy …) (assay: BLI (Octet), Fab monovalent, pH 6.0).
Method: as §2, §3
Work on B1 yielded a Kd of 32 nM. B2 gave a Kd of 23 nM. Work on B3 yielded a Kd of 45 nM. Binder B4 has a Kd of 21 nM. For B5, the Kd was 34 nM. B6 gave a Kd of 21 nM.

These binders were tested against T2, Human CD3εδ Fc heterodimer (Hu CD3ε Fc …) (assay: BLI (Octet), Fab monovalent, pH 6.0).
Method: as §2, §3
For B1, the Kd was 29 nM. In the case of B2, the Kd is reported as 29 nM. B3 gave a Kd of 35 nM. Binder B4 has a Kd of 24 nM. Binder B5 has a Kd of 58 nM. With B6 the Kd was 36 nM.

Each binder was assayed against T1, Cynomolgus CD3εδ Fc heterodimer (Cy …) (assay: SPR (Biacore), Fab over immobilized CD3εδ Fc, pH 6.0).
Method: as §1
Work on B1 yielded a Kd of 11 nM. B2 was tested, and the Kd was 15 nM. For B3, the Kd was 24 nM. In the case of B4, the Kd is reported as 12 nM. For B5, the Kd was 26 nM. Binder B6 has a Kd of 29 nM.

These binders were tested against T2, Human CD3εδ Fc heterodimer (Hu CD3ε Fc …) in the same assay as above.
Method: as §1
Work on B1 yielded a Kd of 11 nM. In the case of B2, the Kd is reported as 16 nM. For B3, the Kd was 20 nM. With B4 the Kd was 12 nM. B5 gave a Kd of 25 nM. Binder B6 has a Kd of 33 nM.

The binders below were run against T4, Human CD3 on CD3+ Jurkat cells (human, UniProt P07766 23-207) (assay: flow cytometry, 100 nM IgG1, pH 7.4).
T4 construct: whole, on cells; Target is the endogenous CD3 complex on cells; also called Human CD3+ Jurkat cells
T4 sequence (P07766 23-207): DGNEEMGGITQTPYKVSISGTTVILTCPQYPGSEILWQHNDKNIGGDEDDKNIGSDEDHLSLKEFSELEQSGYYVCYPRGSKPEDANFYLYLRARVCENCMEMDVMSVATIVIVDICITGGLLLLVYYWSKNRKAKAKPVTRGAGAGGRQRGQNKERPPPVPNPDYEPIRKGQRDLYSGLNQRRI
Method: (§4) Cell binding assays. CD3+ human Jurkat cells (ATCC) and CHO-S cells (Invitrogen/ThermoFisher) were thawed and washed with cold PBSF buffer, pH 7.4 (PBS+0.1% BSA, pH 7.4). About 200,000 cells were aliquoted per well of a 96-well plate (FACS Assay Plate VWR BD 353263) and pelleted by centrifugation (5 minutes at 500×g). The cells were washed with either PBSF pH 7.4 or PBSF pH 6.0 (PBS+0.1% BSA, pH 6.0), and then resuspended in 100 μl in either PBSF pH 7.4 or PBSF pH 6.0 with IgG1 antibody (100 nM) produced in yeast as described above or in CHO cells. The mixture (cells+antibody) was incubated for 20 minutes on ice, then washed twice with either PBSF pH 7.4 or PBSF pH 6.0. Cells were resuspended in 50 μl of propidium iodide (Roche; 1:500 dilution) and anti-human IgG-RPE (Southern Biotech; 1:100 dilution) prepared in either PBSF pH 7.4 or PBSF pH 6.0, then incubated for 20 minutes on ice in the dark before cells were washed twice with either PBSF pH 7.4 or PBSF pH 6.0. Binding was analyzed on FACS Canto II.
(§5) Anti-CD3 antibodies A001-A005, V002, V004, V007, V009, V010, V013, and V014-V019 were produced as IgG1s in CHO cells, and binding to human CD3+ Jurkat cells and cynomolgus CD3+ HSC-F cells at pH 7.4 was analyzed by flow cytometry as described in Example 2. NCB (Normalized Cell Binding) values were calculated based on control and sample MFI values as NCB={(Sample MFI)−(Secondary only MFI)}/(Secondary only MFI).
In the case of B7, the “NCB (Normalized Cell Binding)” value is reported as 209. With B8 the “NCB (Normalized Cell Binding)” value was 240. For B9, the “NCB (Normalized Cell Binding)” value was 206. For B10, the “NCB (Normalized Cell Binding)” value was 349. For B11, the “NCB (Normalized Cell Binding)” value was 334. In the case of B12, the “NCB (Normalized Cell Binding)” value is reported as 314. B13 was tested, and the “NCB (Normalized Cell Binding)” value was 325. With B14 the “NCB (Normalized Cell Binding)” value was 223. For B15, the “NCB (Normalized Cell Binding)” value was 328.

Each binder was assayed against T5, Cynomolgus CD3 on HSC-F cells (cynomolgus, UniProt Q95LI5 22-198) (assay: flow cytometry, 100 nM IgG1, pH 7.4).
T5 construct: whole, on cells; Target is the endogenous CD3 complex on cells; also called Cyno CD3 HSC-F cells; Cyno CD3+ HSC-F cells
T5 sequence (Q95LI5 22-198): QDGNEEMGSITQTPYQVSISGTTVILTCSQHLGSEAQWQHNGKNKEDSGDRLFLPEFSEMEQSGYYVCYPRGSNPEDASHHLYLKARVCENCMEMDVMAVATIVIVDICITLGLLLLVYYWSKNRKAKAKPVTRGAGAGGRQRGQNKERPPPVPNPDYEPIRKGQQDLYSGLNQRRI
Method: as §4, §5
In the case of B7, the “NCB (Normalized Cell Binding)” value is reported as 367. B8 was tested, and the “NCB (Normalized Cell Binding)” value was 348. B9 was tested, and the “NCB (Normalized Cell Binding)” value was 364. B10 was tested, and the “NCB (Normalized Cell Binding)” value was 377. B11 was tested, and the “NCB (Normalized Cell Binding)” value was 369. In the case of B12, the “NCB (Normalized Cell Binding)” value is reported as 374. With B13 the “NCB (Normalized Cell Binding)” value was 376. B14 was tested, and the “NCB (Normalized Cell Binding)” value was 378. In the case of B15, the “NCB (Normalized Cell Binding)” value is reported as 373.
